Measurements from the Human Domainome abundance scans (Beltran et al. 2025).
± gives the uncertainty stated by the source.

B1: Far upstream element-binding protein 1, residues 98 to 169; numbered along this chain, Q96AE4 (parent)
chain: RSVMTEEYKVPDGMVGFIIGRGGEQISRIQQESGCKIQIAPDSGGLPERSCMLTGTPESVQSAKRLLDQIVE

Variants of: B1
Test: abundance fitness (aPCA) (normalised: wild type 0, dead -1); higher = more abundant; growth selection in yeast, the domain comes from the species named
Conditions: Homo sapiens
ASVMTEEYKVPDGMVGFIIGRGGEQISRIQQESGCKIQIAPDSGGLPERSCMLTGTPESVQSAKRLLDQIVE showed an abundance fitness of -0.125 ± 0.043. With CSVMTEEYKVPDGMVGFIIGRGGEQISRIQQESGCKIQIAPDSGGLPERSCMLTGTPESVQSAKRLLDQIVE the abundance fitness was -0.013 ± 0.033. For DSVMTEEYKVPDGMVGFIIGRGGEQISRIQQESGCKIQIAPDSGGLPERSCMLTGTPESVQSAKRLLDQIVE, the abundance fitness was 0.042 ± 0.048. ESVMTEEYKVPDGMVGFIIGRGGEQISRIQQESGCKIQIAPDSGGLPERSCMLTGTPESVQSAKRLLDQIVE gave an abundance fitness of -0.194 ± 0.054. Variant GSVMTEEYKVPDGMVGFIIGRGGEQISRIQQESGCKIQIAPDSGGLPERSCMLTGTPESVQSAKRLLDQIVE has an abundance fitness of -0.102 ± 0.031. Variant HSVMTEEYKVPDGMVGFIIGRGGEQISRIQQESGCKIQIAPDSGGLPERSCMLTGTPESVQSAKRLLDQIVE has an abundance fitness of -0.219 ± 0.065. ISVMTEEYKVPDGMVGFIIGRGGEQISRIQQESGCKIQIAPDSGGLPERSCMLTGTPESVQSAKRLLDQIVE showed an abundance fitness of 0.01 ± 0.034. In the case of KSVMTEEYKVPDGMVGFIIGRGGEQISRIQQESGCKIQIAPDSGGLPERSCMLTGTPESVQSAKRLLDQIVE, the abundance fitness is reported as -0.081 ± 0.035. LSVMTEEYKVPDGMVGFIIGRGGEQISRIQQESGCKIQIAPDSGGLPERSCMLTGTPESVQSAKRLLDQIVE gave an abundance fitness of -0.131 ± 0.038. In the case of NSVMTEEYKVPDGMVGFIIGRGGEQISRIQQESGCKIQIAPDSGGLPERSCMLTGTPESVQSAKRLLDQIVE, the abundance fitness is reported as 0.043 ± 0.034. Variant PSVMTEEYKVPDGMVGFIIGRGGEQISRIQQESGCKIQIAPDSGGLPERSCMLTGTPESVQSAKRLLDQIVE has an abundance fitness of -0.286 ± 0.062. With QSVMTEEYKVPDGMVGFIIGRGGEQISRIQQESGCKIQIAPDSGGLPERSCMLTGTPESVQSAKRLLDQIVE the abundance fitness was -0.513 ± 0.14. In the case of SSVMTEEYKVPDGMVGFIIGRGGEQISRIQQESGCKIQIAPDSGGLPERSCMLTGTPESVQSAKRLLDQIVE, the abundance fitness is reported as -0.113 ± 0.028. For VSVMTEEYKVPDGMVGFIIGRGGEQISRIQQESGCKIQIAPDSGGLPERSCMLTGTPESVQSAKRLLDQIVE, the abundance fitness was -0.035 ± 0.036. WSVMTEEYKVPDGMVGFIIGRGGEQISRIQQESGCKIQIAPDSGGLPERSCMLTGTPESVQSAKRLLDQIVE showed an abundance fitness of -0.269 ± 0.035. Work on YSVMTEEYKVPDGMVGFIIGRGGEQISRIQQESGCKIQIAPDSGGLPERSCMLTGTPESVQSAKRLLDQIVE yielded an abundance fitness of 0.011 ± 0.046. With RAVMTEEYKVPDGMVGFIIGRGGEQISRIQQESGCKIQIAPDSGGLPERSCMLTGTPESVQSAKRLLDQIVE the abundance fitness was -0.033 ± 0.027. For RCVMTEEYKVPDGMVGFIIGRGGEQISRIQQESGCKIQIAPDSGGLPERSCMLTGTPESVQSAKRLLDQIVE, the abundance fitness was -0.085 ± 0.037. In the case of REVMTEEYKVPDGMVGFIIGRGGEQISRIQQESGCKIQIAPDSGGLPERSCMLTGTPESVQSAKRLLDQIVE, the abundance fitness is reported as -0.007 ± 0.037. Work on RFVMTEEYKVPDGMVGFIIGRGGEQISRIQQESGCKIQIAPDSGGLPERSCMLTGTPESVQSAKRLLDQIVE yielded an abundance fitness of -0.026 ± 0.039. Variant RGVMTEEYKVPDGMVGFIIGRGGEQISRIQQESGCKIQIAPDSGGLPERSCMLTGTPESVQSAKRLLDQIVE has an abundance fitness of -0.003 ± 0.026. In the case of RHVMTEEYKVPDGMVGFIIGRGGEQISRIQQESGCKIQIAPDSGGLPERSCMLTGTPESVQSAKRLLDQIVE, the abundance fitness is reported as -0.15 ± 0.048. With RIVMTEEYKVPDGMVGFIIGRGGEQISRIQQESGCKIQIAPDSGGLPERSCMLTGTPESVQSAKRLLDQIVE the abundance fitness was -0.077 ± 0.048. RKVMTEEYKVPDGMVGFIIGRGGEQISRIQQESGCKIQIAPDSGGLPERSCMLTGTPESVQSAKRLLDQIVE showed an abundance fitness of -0.006 ± 0.039. Variant RLVMTEEYKVPDGMVGFIIGRGGEQISRIQQESGCKIQIAPDSGGLPERSCMLTGTPESVQSAKRLLDQIVE has an abundance fitness of -0.052 ± 0.027. Work on RMVMTEEYKVPDGMVGFIIGRGGEQISRIQQESGCKIQIAPDSGGLPERSCMLTGTPESVQSAKRLLDQIVE yielded an abundance fitness of 0.038 ± 0.037. For RNVMTEEYKVPDGMVGFIIGRGGEQISRIQQESGCKIQIAPDSGGLPERSCMLTGTPESVQSAKRLLDQIVE, the abundance fitness was -0.143 ± 0.057. RPVMTEEYKVPDGMVGFIIGRGGEQISRIQQESGCKIQIAPDSGGLPERSCMLTGTPESVQSAKRLLDQIVE gave an abundance fitness of -0.064 ± 0.031. RQVMTEEYKVPDGMVGFIIGRGGEQISRIQQESGCKIQIAPDSGGLPERSCMLTGTPESVQSAKRLLDQIVE gave an abundance fitness of 0.015 ± 0.035. In the case of RRVMTEEYKVPDGMVGFIIGRGGEQISRIQQESGCKIQIAPDSGGLPERSCMLTGTPESVQSAKRLLDQIVE, the abundance fitness is reported as -0.004 ± 0.025. With RTVMTEEYKVPDGMVGFIIGRGGEQISRIQQESGCKIQIAPDSGGLPERSCMLTGTPESVQSAKRLLDQIVE the abundance fitness was 0.012 ± 0.03. Variant RVVMTEEYKVPDGMVGFIIGRGGEQISRIQQESGCKIQIAPDSGGLPERSCMLTGTPESVQSAKRLLDQIVE has an abundance fitness of -0.036 ± 0.029. With RWVMTEEYKVPDGMVGFIIGRGGEQISRIQQESGCKIQIAPDSGGLPERSCMLTGTPESVQSAKRLLDQIVE the abundance fitness was -0.133 ± 0.035. With RYVMTEEYKVPDGMVGFIIGRGGEQISRIQQESGCKIQIAPDSGGLPERSCMLTGTPESVQSAKRLLDQIVE the abundance fitness was -0.087 ± 0.049. In the case of RSAMTEEYKVPDGMVGFIIGRGGEQISRIQQESGCKIQIAPDSGGLPERSCMLTGTPESVQSAKRLLDQIVE, the abundance fitness is reported as -0.058 ± 0.025. For RSCMTEEYKVPDGMVGFIIGRGGEQISRIQQESGCKIQIAPDSGGLPERSCMLTGTPESVQSAKRLLDQIVE, the abundance fitness was -0.048 ± 0.033. With RSDMTEEYKVPDGMVGFIIGRGGEQISRIQQESGCKIQIAPDSGGLPERSCMLTGTPESVQSAKRLLDQIVE the abundance fitness was -0.042 ± 0.036. Variant RSEMTEEYKVPDGMVGFIIGRGGEQISRIQQESGCKIQIAPDSGGLPERSCMLTGTPESVQSAKRLLDQIVE has an abundance fitness of 0.004 ± 0.029.
